Biological target: T1, 3xFLAG-HSF1, Q00613
T1 chain: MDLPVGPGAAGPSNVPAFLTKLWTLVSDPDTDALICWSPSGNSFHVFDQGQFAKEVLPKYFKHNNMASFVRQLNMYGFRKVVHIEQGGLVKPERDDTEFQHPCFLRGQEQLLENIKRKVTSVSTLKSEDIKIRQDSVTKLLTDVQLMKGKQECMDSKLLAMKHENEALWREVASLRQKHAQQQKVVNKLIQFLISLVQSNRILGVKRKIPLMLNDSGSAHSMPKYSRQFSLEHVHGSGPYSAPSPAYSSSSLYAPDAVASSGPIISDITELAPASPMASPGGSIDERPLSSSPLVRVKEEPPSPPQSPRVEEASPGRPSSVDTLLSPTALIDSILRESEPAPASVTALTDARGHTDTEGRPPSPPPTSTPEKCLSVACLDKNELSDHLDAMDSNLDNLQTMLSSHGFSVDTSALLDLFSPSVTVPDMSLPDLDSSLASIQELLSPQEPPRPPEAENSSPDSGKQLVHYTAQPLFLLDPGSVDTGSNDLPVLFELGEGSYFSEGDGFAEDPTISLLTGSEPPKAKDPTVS
Assay: cross-linking; cell extracts from transfected 293T cells, in vitro cross-linking with 2 mM ethylene glycol bis(succinimidyl succinate) (EGS), immunoblot; with or without DBC1 overexpression
Conditions: remark: other sources report otherwise

stoichiometry N: 3
B1: 3xFLAG-HSF1, Q00613 1-529 (natural protein)
chain: MDLPVGPGAAGPSNVPAFLTKLWTLVSDPDTDALICWSPSGNSFHVFDQGQFAKEVLPKYFKHNNMASFVRQLNMYGFRKVVHIEQGGLVKPERDDTEFQHPCFLRGQEQLLENIKRKVTSVSTLKSEDIKIRQDSVTKLLTDVQLMKGKQECMDSKLLAMKHENEALWREVASLRQKHAQQQKVVNKLIQFLISLVQSNRILGVKRKIPLMLNDSGSAHSMPKYSRQFSLEHVHGSGPYSAPSPAYSSSSLYAPDAVASSGPIISDITELAPASPMASPGGSIDERPLSSSPLVRVKEEPPSPPQSPRVEEASPGRPSSVDTLLSPTALIDSILRESEPAPASVTALTDARGHTDTEGRPPSPPPTSTPEKCLSVACLDKNELSDHLDAMDSNLDNLQTMLSSHGFSVDTSALLDLFSPSVTVPDMSLPDLDSSLASIQELLSPQEPPRPPEAENSSPDSGKQLVHYTAQPLFLLDPGSVDTGSNDLPVLFELGEGSYFSEGDGFAEDPTISLLTGSEPPKAKDPTVS

— paper PMC12586603
